According to patent publication US20260199524:

Experiments:
Histone H4 = Histone H4 (UniProt P62805)
Histone H3.1 = Histone H3.1 (UniProt P68431)
Histone H3.3 = Histone H3.3 (UniProt P84243)

wild type SIRT6 polypeptide (sirtuin 6)
histone acetylation PTM profile by LC-MS/MS in 3T3-L1 adipocytes (Histone H4): Overexpression of SIR6 wt or SIRT6cent in 3T3-L1 led to changes in the acetylation profiles of histones H3.1, H3.2 and H4
histone acetylation/methylation PTM profile by LC-MS/MS in 3T3-L1 adipocytes (Histone H3.1): Overexpression of SIR6 wt or SIRT6cent in 3T3-L1 led to changes in the acetylation profiles of histones H3.1, H3.2 and H4
histone acetylation/methylation PTM profile by LC-MS/MS in 3T3-L1 adipocytes (Histone H3.3): significant difference between AdiWT and AdiCent at the levels of lysines (K) ... K27, K36 and K37 in H3.3
